In assay [1] the target is T1, Recombinant mouse sclerostin (mouse, UniProt Q99P68 24-211).
T1 sequence: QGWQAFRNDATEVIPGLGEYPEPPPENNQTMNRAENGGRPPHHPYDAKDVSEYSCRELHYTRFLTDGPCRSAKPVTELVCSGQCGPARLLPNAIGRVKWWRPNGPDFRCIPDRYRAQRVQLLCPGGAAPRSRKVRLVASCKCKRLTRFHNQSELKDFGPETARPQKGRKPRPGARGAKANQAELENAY
Briefly: cell-based or functional assay.

Assay [2] concerns the target T1, Recombinant mouse sclerostin. Briefly: cell-based or functional assay. This is another data set of the same source.
Assay [3] has the same target. The assay is described as follows: SPR (Biacore T200), 37 C, dissociation at pH 5.8 of complex formed at pH 7.4.
Procedure: The affinity of anti-sclerostin variants binding to human, cynomolgus monkey (cyno), rat, or mouse sclerostin at pH 7.4 and pH 5.8 were determined at 37 degrees C. using Biacore T200 instrument (GE Healthcare). Anti-human Fc (GE Healthcare) was immobilized onto all flow cells of a CM4 sensor chip using amine coupling kit (GE Healthcare). All antibodies and analytes were prepared in ACES pH7.4 or pH 5.8 buffer containing 20 mM ACES, 150 mM NaCl, 1.2 mM CaCl₂, 0.05% Tween 20, 0.005% NaN₃. Each antibody was captured onto the sensor surface by anti-human Fc. […] Sensor surface was regenerated each cycle with 3M MgCl₂.
The pH dependent interaction assessment was determined by a modified Biacore assay. Briefly, an additional dissociation phase at pH5.8 was integrated into the Biacore assay immediately after dissociation phase at pH7.4. This is to assess the pH-dependent dissociation between antibody and antigen from the complexes formed at pH7.4. The dissociation rate at pH5.8 buffer was determined by processing and fitting data using Scrubber 2.0 (BioLogic Software) curve fitting software.

B1: mabB//mabA_pH3-BS01 (bispecific antibody, human IgG1, kappa)
heavy 1: QVQLVQSGAEVKKPGASVKVSCKVSGFPIKHHFQHWVRQAPGKGLEWMGWSDPEIGDTEYASKFQGRVTMTEDTSTDTAYMELSSLRSEDTAVYYCATGHTTYKFDFWGQGTTVTVSSASTKGPSVFPLAPSSRSTSESTAALGCLVKDYFPEPVTVSWNSGALTSGVHTFPAVLQSSGLYSLSSVVTVPSSSLGTKTYTCNVDHKPSNTKVDKRVEPKSCDKTHTCPPCPAPELLGGPSVFLFPPKPKDTLMISRTPEVTCVVVDVSQEDPEVQFNWYVDGVEVHNAKTKPREEQFNSTYRVVSVLTVLHQDWLNGKEYKCKVSNKGLPSSIEKTISKAKGQPREPQVYTLPPSREEMTKNQVSLTCLVKGFYPSDIAVEWESNGQPENNYKTTPPYLDSDGSFFLYSKLTVDKSRWQQGNVFSCSVMHEALHNHYTQESLSLSP
light 1: DIQMTQSPSSLSASVGDRVTITCKASQDVHTAVAWYQQKPGKAPKLLIYWASTRWTGVPSRFSGSGSGTDFTLTISSLQPEDFATYYCQQYSDYHWTFGGGTKVEIKRTVAAPSVFIFPPSDEQLKSGTASVVCLLNNFYPREAKVQWKVDNALQSGNSQESVTEQDSKDSTYSLSSTLTLSKADYEKHKVYACEVTHQGLSSPVTKSFNRGEC
heavy 2: EVQLVQSGAEVKKPGASVKVSCKASGYTFTDYNMHWVRQAPGQGLEWMGEINPHSGHAGYNQKFKGRVTMTTDTSTSTAYMELRSLRSDDTAVYYCARLHYDDIHDDWYFDVWGQGTTVTVSSASTKGPSVFPLAPSSRSTSESTAALGCLVKDYFPEPVTVSWNSGALTSGVHTFPAVLQSSGLYSLSSVVTVPSSSLGTKTYTCNVDHKPSNTKVDKRVEPKSCDKTHTCPPCPAPELLGGPSVFLFPPKPKDTLMISRTPEVTCVVVDVSQEDPEVQFNWYVDGVEVHNAKTKPREEQFNSTYRVVSVLTVLHQDWLNGKEYKCKVSNKGLPSSIEKTISKAKGQPREPQVYTLPPSRKEMTKNQVSLTCLVKGFYPSDIAVEWESNGQPENNYKTTPPYLDSDGSFFLYSKLTVDKSRWQQGNVFSCSVMHEALHNHYTQKSLSLSP
light 2: not shown
B1: the “MFI of pHrodo-Red-labelled mouse sclerostin taken up into MDCK cells expressing human Fc gamma receptor IIB and human FcRn (flow cytometry)” value (shortened to “MFI”) in assay [1] was 2130 MFI. Besides, the “IC50 (read off the curve); Wnt1-induced TCF/LEF luciferase reporter in HEK293T cells, % Inhibition of mouse SOST” value in assay [2] is ~10 µg/mL.

B2: mabB//mabA_NpH3-BS01 (bispecific antibody, human IgG1, kappa)
heavy 1: QVQLVQSGAEVKKPGASVKVSCKVSGFPIKHHFQHWVRQAPGKGLEWMGWSDPEIGDTEYASKFQGRVTMTEDTSTDTAYMELSSLRSEDTAVYYCATGDTTYKFDFWGQGTTVTVSSASTKGPSVFPLAPSSRSTSESTAALGCLVKDYFPEPVTVSWNSGALTSGVHTFPAVLQSSGLYSLSSVVTVPSSSLGTKTYTCNVDHKPSNTKVDKRVEPKSCDKTHTCPPCPAPELLGGPSVFLFPPKPKDTLMISRTPEVTCVVVDVSQEDPEVQFNWYVDGVEVHNAKTKPREEQFNSTYRVVSVLTVLHQDWLNGKEYKCKVSNKGLPSSIEKTISKAKGQPREPQVYTLPPSREEMTKNQVSLTCLVKGFYPSDIAVEWESNGQPENNYKTTPPYLDSDGSFFLYSKLTVDKSRWQQGNVFSCSVMHEALHNHYTQESLSLSP
light 1: DIQMTQSPSSLSASVGDRVTITCKASQDVHTAVAWYQQKPGKAPKLLIYWASTRWTGVPSRFSGSGSGTDFTLTISSLQPEDFATYYCQQYHDYPWTFGGGTKVEIKRTVAAPSVFIFPPSDEQLKSGTASVVCLLNNFYPREAKVQWKVDNALQSGNSQESVTEQDSKDSTYSLSSTLTLSKADYEKHKVYACEVTHQGLSSPVTKSFNRGEC
heavy 2: EVQLVQSGAEVKKPGASVKVSCKASGYTFTDYNMHWVRQAPGQGLEWMGEINPNSGGAGYNQKFKGRVTMTTDTSTSTAYMELRSLRSDDTAVYYCARLGYDDIYDDWYFDVWGQGTTVTVSSASTKGPSVFPLAPSSRSTSESTAALGCLVKDYFPEPVTVSWNSGALTSGVHTFPAVLQSSGLYSLSSVVTVPSSSLGTKTYTCNVDHKPSNTKVDKRVEPKSCDKTHTCPPCPAPELLGGPSVFLFPPKPKDTLMISRTPEVTCVVVDVSQEDPEVQFNWYVDGVEVHNAKTKPREEQFNSTYRVVSVLTVLHQDWLNGKEYKCKVSNKGLPSSIEKTISKAKGQPREPQVYTLPPSRKEMTKNQVSLTCLVKGFYPSDIAVEWESNGQPENNYKTTPPYLDSDGSFFLYSKLTVDKSRWQQGNVFSCSVMHEALHNHYTQKSLSLSP
light 2: not shown
Regarding B2, the “MFI” value in assay [1] worked out at 653 MFI.

B3: mabA_NpH3-SG2 (antibody, human IgG2, kappa, V domains shown)
VH: EVQLVQSGAEVKKPGASVKVSCKASGYTFTDYNMHWVRQAPGQGLEWMGEINPNSGGAGYNQKFKGRVTMTTDTSTSTAYMELRSLRSDDTAVYYCARLGYDDIYDDWYFDVWGQGTTVTVSS
VL: DIQMTQSPSSLSASVGDRVTITCRASQDISNYLNWYQQKPGKAPKLLIYYHSRLLSGVPSRFSGSGSGTDFTLTISSLQPEDFATYYCHQGDTLPYTFGGGTKVEIKR
For the molecule B3, in assay [1], the “MFI” value is 561 MFI.

B4: mabB//mabA_pH3 (bispecific antibody, V domains shown)
VH 1: QVQLVQSGAEVKKPGASVKVSCKVSGFPIKHHFQHWVRQAPGKGLEWMGWSDPEIGDTEYASKFQGRVTMTEDTSTDTAYMELSSLRSEDTAVYYCATGHTTYKFDFWGQGTTVTVSS
VL 1: DIQMTQSPSSLSASVGDRVTITCKASQDVHTAVAWYQQKPGKAPKLLIYWASTRWTGVPSRFSGSGSGTDFTLTISSLQPEDFATYYCQQYSDYHWTFGGGTKVEIK
VH 2: EVQLVQSGAEVKKPGASVKVSCKASGYTFTDYNMHWVRQAPGQGLEWMGEINPHSGHAGYNQKFKGRVTMTTDTSTSTAYMELRSLRSDDTAVYYCARLHYDDIHDDWYFDVWGQGTTVTVSS
VL 2: DIQMTQSPSSLSASVGDRVTITCRASHDIHNYLNWYQQKPGKAPKLLIYYTSRLLSGVPSRFSGSGSGTDFTLTISSLQPEDFATYYCQQGDTLPYTFGGGTKVEIK
notes: Biparatopic
In the case of B4, the koff in assay [3] was found to be 0.0516 s⁻¹.

B5: mabA_pH3 (antibody, V domains shown)
VH: EVQLVQSGAEVKKPGASVKVSCKASGYTFTDYNMHWVRQAPGQGLEWMGEINPHSGHAGYNQKFKGRVTMTTDTSTSTAYMELRSLRSDDTAVYYCARLHYDDIHDDWYFDVWGQGTTVTVSS
VL: DIQMTQSPSSLSASVGDRVTITCRASHDISNYLNWYQQKPGKAPKLLIYYTSRLLSGVPSRFSGSGSGTDFTLTISSLQPEDFATYYCQQGDTLPYTFGGGTKVEIK
Regarding B5, the off-rate constant (koff) in assay [3] is 0.000932 s⁻¹.

B6: mabB//mabA_pH2 (bispecific antibody, V domains shown)
VH 1: QVQLVQSGAEVKKPGASVKVSCKVSGFPIKHHFQHWVRQAPGKGLEWMGWSDPEIGDTEYASKFQGRVTMTEDTSTDTAYMELSSLRSEDTAVYYCATGHTTYKFDFWGQGTTVTVSS
VL 1: DIQMTQSPSSLSASVGDRVTITCKASQDVHTAVAWYQQKPGKAPKLLIYWASTRWTGVPSRFSGSGSGTDFTLTISSLQPEDFATYYCQQYSDYHWTFGGGTKVEIK
VH 2: EVQLVQSGAEVKKPGASVKVSCKASGYTFTDYNMHWVRQAPGQGLEWMGEINPHSGHAGYNQKFKGRVTMTTDTSTSTAYMELRSLRSDDTAVYYCARLHYDDIHDDWYFDVWGQGTTVTVSS
VL 2: DIQMTQSPSSLSASVGDRVTITCRASHDISNYLNWYQQKPGKAPKLLIYYTSRLLSGVPSRFSGSGSGTDFTLTISSLQPEDFATYYCQQGDTLPYTFGGGTKVEIK
notes: Biparatopic
As for B6, the koff in assay [3] worked out at 0.0186 s⁻¹.

B7: mabB//mabA_pH1 (bispecific antibody, V domains shown)
VH 1: QVQLVQSGAEVKKPGASVKVSCKVSGFPIKHHFQHWVRQAPGKGLEWMGWSDPEIGDTEYASKFQGRVTMTEDTSTDTAYMELSSLRSEDTAVYYCATGDTTYKFDFWGQGTTVTVSS
VL 1: DIQMTQSPSSLSASVGDRVTITCKASQDVHTAVAWYQQKPGKAPKLLIYWASTRWTGVPSRFSGSGSGTDFTLTISSLQPEDFATYYCQQYSDYHWTFGGGTKVEIK
VH 2: EVQLVQSGAEVKKPGASVKVSCKASGYTFTDYNMHWVRQAPGQGLEWMGEINPHSGHAGYNQKFKGRVTMTTDTSTSTAYMELRSLRSDDTAVYYCARLHYDDIHDDWYFDVWGQGTTVTVSS
VL 2: DIQMTQSPSSLSASVGDRVTITCRASHDIHNYLNWYQQKPGKAPKLLIYYTSRLLSGVPSRFSGSGSGTDFTLTISSLQPEDFATYYCQQGDTLPYTFGGGTKVEIK
notes: Biparatopic
On to B7, for which the koff in assay [3] worked out at 0.0347 s⁻¹.
